Data: US20090099029

T1: Bovine, dephosphorylated, Myelin Basic Protein (MBP), P02687
T1 chain: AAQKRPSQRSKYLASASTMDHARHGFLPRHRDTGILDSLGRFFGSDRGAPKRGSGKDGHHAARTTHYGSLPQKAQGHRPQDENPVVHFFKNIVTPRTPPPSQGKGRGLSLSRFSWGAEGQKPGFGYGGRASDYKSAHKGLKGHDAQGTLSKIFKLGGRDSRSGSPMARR


Molecular target: T1, Bovine, dephosphorylated, Myelin Basic …

| Protein | MBP Kinase Activity |
| --- | --- |
| TEC (protein) MNFNTILEEILIKRSQQKKKTSPLNYKERLFVLTKSMLTYYEGRAEKKYRKGFIDVSKIKCVEIVKNDDGVIPCQNKYPFQVVHDANTLYIFAPSPQSRDLWVKKLKEEIKNNNNIMIKYHPKFWTDGSYQCCRQTEKLAPGCEKYNLFESSIRKALPPAPETKKRRPPPPIPLEEEDNSEEIVVAMYDFQAAEGHDLRLERGQEYLILEKNDVHWWRARDKYGNEGYIPSNYVTGKKSNNLDQYEWYCRNMNRSKAEQLLRSEDKEGGFMVRDSSQPGLYTVSLYTKFGGEGSSGFRHYHIKETTTSPKKYYLAEKHAFGSIPEIIEYHKHNAAGLVTRLRYPVSVKGKNAPTTAGFSYEKWEINPSELTFMRELGSGLFGVVRLGKWRAQYKVAIKAIREGAMCEEDFIEEAKVMMKLTHPKLVQLYGVCTQQKPIYIVTEFMERGCLLNFLRQRQGHFSRDVLLSMCQDVCEGMEYLERNSFIHRDLAARNCLVSEAGVVKVSDFGMARYVLDDQYTSSSGAKFPVKWCPPEVFNYSRFSSKSDVWSFGVLMWEVFTEGRMPFEKYTNYEVVTMVTRGHRLYQPKLASNYVYEVMLRCWQEKPEGRPSFEDLLRTIDELVECEETFGR | Negative |
| AKT2 (protein) MNEVSVIKEGWLHKRGEYIKTWRPRYFLLKSDGSFIGYKERPEAPDQTLPPLNNFSVAECQLMKTERPRPNTFVIRCLQWTTVIERTFHVDSPDEREEWMRAIQMVANSLKQRAPGEDPMDYKCGSPSDSSTTEEMEVAVSKARAKVTMNDFDYLKLLGKGTFGKVILVREKATGRYYAMKILRKEVIIAKDEVAHTVTESRVLQNTRHPFLTALKYAFQTHDRLCFVMEYANGGELFFHLSRERVFTEERARFYGAEIVSALEYLHSRDVVYRDIKLENLMLDKDGHIKITDFGLCKEGISDGATMKTFCGTPEYLAPEVLEDNDYGRAVDWWGLGVVMYEMMCGRLPFYNQDHERLFELILMEEIRFPRTLSPEAKSLLAGLLKKDPKQRLGGGPSDAKEVMEHRFFLSINWQDVVQKKLLPPFKPQVTSEVDTRYFDDEFTAQSITITPPDRYDSLGLLELDQRTHFPQFSYSASIRE | Strong |
| EPHA2 (protein) HRRRKNQRARQSPEDVYFSKSEQLKPLKTYVDPHTYEDPNQAVLKFTTEIHPSCVTRQKVIGAGEFGEVYKGMLKTSSGKKEVPVAIKTLKAGYTEKQRVDFLGEAGIMGQFSHHNIIRLEGVISKYKPMMIITEYMENGALDKFLREKDGEFSVLQLVGMLRGIAAGMKYLANMNYVHRDLAARNILVNSNLVCKVSDFGLSRVLEDDPEATYTTSGGKIPIRWTAPEAISYRKFTSASDVWSFGIVMWEVMTYGERPYWELSNHEVMKAINDGFRLPTPMDCPSAIYQLMMQCWQQERARRPKFADIVSILDKLIRAPDSLKTLADFDPRVSIRLPSTSGSEGVPFRTVSEWLESIKMQQYTEHFMAAGYTAIEKVVQMTNDDIKRIGVRLPGHQKRIAYSLLGLKDQVNTVGIPI | Weak |
| MATK(HYL) (protein) MQGHFPAERREGRPRRGTRGQQQLLVSPRFLRAWHPPPVSARMPTRRWAPGTQCITKCEHTRPKPGELAFRKGDVVTILEACENKSWYRVKHHTSGQEGLLAAGALREREALSADPKLSLMPWFHGKISGQEAVQQLQPPEDGLFLVRESARHPGDYVLCVSFGRDVIHYRVLHRDGHLTIDEAVFFCNLMDMVEHYSKDKGAICTKLVRPKRKHGTKSAEEELARAGWLLNLQHLTLGAQIGEGEFGAVLQGEYLGQKVAVKNIKCDVTAQAFLDETAVMTKMQHENLVRLLGVILHQGLYIVMEHVSKGNLVNFLRTRGRALVNTAQLLQFSLHVAEGMEYLESKKLVHRDLAARNILVSEDLVAKVSDFGLAKAERKGLDSSRLPVKWTAPEALKHGKFTSKSDVWSFGVLLWEVFSYGRAPYPKMSLKEVSEAVEKGYRMEPPEGCPGPVHVLMSSCWEAEPARRPPFRKLAEKLARELRSAGAPASVSGQDADGSTSPRSQEP | Negative |
| EPHA1 (protein) RSRRAQRQRQQRQRDRATDVDREDKLWLKPYVDLQAYEDPAQGALDFTRELDPAWLMVDTVIGEGEFGEVYRGTLRLPSQDCKTVAIKTLKDTSPGGQWWNFLREATIMGQFSHPHILHLEGVVTKRKPIMIITEFMENGALDAFLREREDQLVPGQLVAMLQGIASGMNYLSNHNYVHRDLAARNILVNQNLCCKVSDFGLTRLLDDFDGTYETQGGKIPIRWTAPEAIAHRIFTTASDVWSFGIVMWEVLSFGDKPYGEMSNQEVMKSIEDGYRLPPPVDCPAPLYELMKNCWAYDRARRPHFQKLQAHLEQLLANPHSLRTIANFDPRMTLRLPSLSGSDGIPYRTVSEWLESIRMKRYILHFHSAGLDTMECVLELTAEDLTQMGITLPGHQKRILCSIQGFKD | Strong |
| AKT3 (protein) MSDVTIVKEGWVQKRGEYIKNWRPRYFLLKTDGSFIGYKEKPQDVDLPYPLNNFSVAKCQLMKTERPKPNTFIIRCLQWTTVIERTFHVDTPEEREEWTEAIQAVADRLQRQEEERMNCSPTSQIDNIGEEEMDASTTHHKRKTMNDFDYLKLLGKGTFGKVILVREKASGKYYAMKILKKEVIIAKDEVAHTLTESRVLKNTRHPFLTSLKYSFQTKDRLCFVMEYVNGGELFFHLSRERVFSEDRTRFYGAEIVSALDYLHSGKIVYRDLKLENLMLDKDGHIKITDFGLCKEGITDAATMKTFCGTPEYLAPEVLEDNDYGRAVDWWGLGVVMYEMMCGRLPFYNQDHEKLFELILMEDIKFPRTLSSDAKSLLSGLLIKDPNKRLGGGPDDAKEIMRHSFFSGVNWQDVYDKKLVPPFKPQVTSETDTRYFDEEFTAQTITITPPEKYDEDGMDCMDNERRPHFPQFSYSASGRE | Strong |
| ZAP70 (protein) MPDPAAHLPFFYGSISRAEAEEHLKLAGMADGLFLLRQCLRSLGGYVLSLVHDVRFHHFPIERQLNGTYAIAGGKAHCGPAELCEFYSRDPDGLPCNLRKPCNRPSGLEPQPGVFDCLRDAMVRDYVRQTWKLEGEALEQAIISQAPQVEKLIATTAHERMPWYHSSLTREEAERKLYSGAQTDGKFLLRPRKEQGTYALSLIYGKTVYHYLISQDKAGKYCIPEGTKFDTLWQLVEYLKLKADGLIYCLKEACPNSSASNASGAAAPTLPAHPSTLTHPQRRIDTLNSDGYTPEPARITSPDKPRPMPMDTSVYESPYSDPEELKDKKLFLKRDNLLIADIELGCGNFGSVRQGVYRMRKKQIDVAIKVLKQGTEKADTEEMMREAQIMHQLDNPYIVRLIGVCQAEALMLVMEMAGGGPLHKFLVGKREEIPVSNVAELLHQVSMGMKYLEEKNFVHRDLAARNVLLVNRHYAKISDFGLSKALGADDSYYTARSAGKWPLKWYAPECINFRKFSSRSDVWSYGVTMWEALSYGQKPYKKMKGPEVMAFIEQGKRMECPPECPPELYALMSDCWIYKWEDRPDFLTVEQRMRACYYSLASKVEGPPGSTQKAEAACA | Negative |
| PTK2(FAK) (protein) MAAAYLDPNLNHTPNSSTKTHLGTGMERSPGAMERVLKVFHYFESNSEPTTWASIIRHGDATDVRGIIQKIVDSHKVKHVACYGFRLSHLRSEEVHWLHVDMGVSSVREKYELAHPPEEWKYELRIRYLPKGFLNQFTEDKPTLNFFYQQVKSDYMLEIADQVDQEIALKLGCLEIRRSYWEMRGNALEKKSNYEVLEKDVGLKRFFPKSLLDSVKAKTLRKLIQQTFRQFANLNREESILKFFEILSPVYRFDKECFKCALGSSWIISVELAIGPEEGISYLTDKGCNPTHLADFTQVQTIQYSNSEDKDRKGMLQLKIAGAPEPLTVTAPSLTIAENMADLIDGYCRLVNGTSQSFIIRPQKEGERALPSIPKLANSEKQGMRTHAVSVSETDDYAEIIDEEDTYTMPSTRDYEIQRERIELGRCIGEGQFGDVHQGIYMSPENPALAVAIKTCKNCTSDSVREKFLQEALTMRQFDHPHIVKLIGVITENPVWIIMELCTLGELRSFLQVRKYSLDLASLILYAYQLSTALAYLESKRFVHRDIAARNVLVSSNDCVKLGDFGLSRYMEDSTYYKASKGKLPIKWMAPESINFRRFTSASDVWMFGVCMWEILMHGVKPFQGVKNNDVIGRIENGERLPMPPNCPPTLYSLMTKCWAYDPSRRPRFTELKAQLSTILEEEKAQQEERMRMESRRQATVSWDSGGSDEAPPKPSRPGYPSPRSSEGFYPSPQHMVQTNHYQVSGYPGSHGITAMAGSIYPGQASLLDQTDSWNHRPQEIAMWQPNVEDSTVLDLRGIGQVLPTHLMEERLIRQQQEMEEDQRWLEKEERFLKPDVRLSRGSIDREDGSLQGPIGNQHIYQPVGKPDPAAPPKKPPRPGAPGHLGSLASLSSPADSYNEGVKLQPQEISPPPTANLDRSNDKVYENVTGLVKAVIEMSSKIQPAPPEEYVPMVKEVGLALRTLLATVDETIPLLPASTHREIEMAQKLLNSDLGELINKMKLAQQYVMTSLQQEYKKQMLTAAHALAVDAKNLLDVIDQARLKMLGQTRPH | Negative |
| ADRBK1(GRK2) (protein) MADLEAVLADVSYLMAMEKSKATPAARASKKILLPEPSIRSVMQKYLEDRGEVTFEKIFSQKLGYLLFRDFCLNHLEEARPLVEFYEEIKKYEKLETEEERVARSREIFDSYIMKELLACSHPFSKSATEHVQGHLGKKQVPPDLFQPYIEEICQNLRGDVFQKFIESDKFTRFCQWKNVELNIHLTMNDFSVHRIIGRGGFGEVYGCRKADTGKMYAMKCLDKKRIKMKQGETLALNERIMLSLVSTGDCPFIVCMSYAFHTPDKLSFILDLMNGGDLHYHLSQHGVFSEADMRFYAAEIILGLEHMHNRFVVYRDLKPANILLDEHGHVRISDLGLACDFSKKKPHASVGTHGYMAPEVLQKGVAYDSSADWFSLGCMLFKLLRGHSPFRQHKTKDKHEIDRMTLTMAVELPDSFSPELRSLLEGLLQRDVNRRLGCLGRGAQEVKESPFFRSLDWQMVFLQKYPPPLIPPRGEVNAADAFDIGSFDEEDTKGIKLLDSDQELYRNFPLTISERWQQEVAETVFDTINAETDRLEARKKAKNKQLGHEEDYALGKDCIMHGYMSKMGNPFLTQWQRRYFYLFPNRLEWRGEGEAPQSLLTMEEIQSVEETQIKERKCLLLKIRGGKQFILQCDSDPELVQWKKELRDAYREAQQLVQRVPKMKNKPRSPVVELSKVPLVQRGSANGL | Negative |
| STK6(AuroraA) (protein) MDRSKENCISGPVKATAPVGGPKRVLVTQQFPCQNPLPVNSGQAQRVLCPSNSSQRIPLQAQKLVSSHKPVQNQKQKQLQATSVPHPVSRPLNNTQKSKQPLPSAPENNPEEELASKQKNEESKKRQWALEDFEIGRPLGKGKFGNVYLAREKQSKFILALKVLFKAQLEKAGVEHQLRREVEIQSHLRHPNILRLYGYFHDATRVYLILEYAPLGTVYRELQKLSKFDEQRTATYITELANALSYCHSKRVIHRDIKPENLLLGSAGELKIADFGWSVHAPSSRRTTLCGTLDYLPPEMIEGRMHDEKVDLWSLGVLCYEFLVGKPPFEANTYQETYKRISRVEFTFPDFVTEGARDLISRLLKHNPSQRPMLREVLEHPWITANSSKPSNCQNKESASKQS | Weak |
